Laboratory results: patent publication US20070053894

Test system: Soluble human recombinant p97 (melanotransferrin)
Sequence (chain, as listed by the source): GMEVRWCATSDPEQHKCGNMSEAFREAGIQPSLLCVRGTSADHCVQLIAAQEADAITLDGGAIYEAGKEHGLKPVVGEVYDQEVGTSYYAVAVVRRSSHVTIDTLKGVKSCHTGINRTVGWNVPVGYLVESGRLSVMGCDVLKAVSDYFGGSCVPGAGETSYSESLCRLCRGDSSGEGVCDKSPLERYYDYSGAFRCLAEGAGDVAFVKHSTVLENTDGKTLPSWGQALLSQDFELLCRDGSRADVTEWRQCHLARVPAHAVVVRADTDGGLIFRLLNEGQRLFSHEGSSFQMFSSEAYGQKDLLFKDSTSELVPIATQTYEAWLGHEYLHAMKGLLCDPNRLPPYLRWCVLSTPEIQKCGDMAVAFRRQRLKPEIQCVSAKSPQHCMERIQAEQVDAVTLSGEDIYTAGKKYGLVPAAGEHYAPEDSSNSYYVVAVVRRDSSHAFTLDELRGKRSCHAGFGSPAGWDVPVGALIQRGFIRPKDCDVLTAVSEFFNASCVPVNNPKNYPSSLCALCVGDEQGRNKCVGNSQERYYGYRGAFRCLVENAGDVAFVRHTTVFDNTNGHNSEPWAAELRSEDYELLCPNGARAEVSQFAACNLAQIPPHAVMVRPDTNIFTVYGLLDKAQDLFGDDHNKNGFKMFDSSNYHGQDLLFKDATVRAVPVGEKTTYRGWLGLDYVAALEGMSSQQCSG

pro-urokinase plasminogen activator (pro-uPA)
VLK-pNA hydrolysis (plasminogen activation by pro-uPA) with 70 nM p97 and 30 nM plasminogen, after 180 min: the VLK-pNA hydrolysis is 4-fold higher after 180 min
VLK-pNA hydrolysis by 90 nM pro-uPA with 70 nM p97, without plasminogen: goes from less than 50 AU/min in the absence of p97 to more than 450 AU/min when p97 is added
half-maximal stimulation of plasminogen cleavage by pro-uPA (initial rates of plasmin activity): half-maximal stimulation occurring at 25±6 nM
increase of catalytic efficiency of plasminogen activation by pro-uPA with 250 nM p97: increasing the catalytic efficiency by a factor of 2.4-fold
